We go through one protein from paper PMC11401227, “The structure of DNA methyltransferase DNMT3C reveals an activity-tuning mechanism for DNA methylation” (The Journal of Biological Chemistry, 2024).

This data set deals with the molecule itself. The data set is described as follows: crystal structure; DNMT3C MTase domain-hDNMT3L C-terminal domain covalently bound to a 25-mer ZpG/CpG DNA, with SAH; 3.2 Å; crystals grown at 4 °C.

B1: mouse DNMT3C MTase domain (residues 456–740) (domain or fragment, UniProt P0DOY1 456-740, looked up)
chain: AAKRRPIRVLSLFDGIATGYLVLKELGIKVEKYIASEVCAESIAVGTVKHEGQIKYVDDIRNITKEHIDEWGPFDLVIGGSPCNDLSCVNPVRKGLFEGTGRLFFEFYRLLNYSCPEEEDDRPFFWMFENVVAMEVGDKRDISRFLECNPVMIDAIKVSAAHRARYFWGNLPGMNRPVMASKNDKLELQDCLEFSRTAKLKKVQTITTKSNSIRQGKNQLFPVVMNGKDDVLWCTELERIFGFPEHYTDVSNMGRGARQKLLGRSWSVPVIRHLFAPLKDHFACE
notes: DNA methyltransferase DNMT3C, mouse, MTase domain, residues 456-740; synthetic DNA fragment; The His6-SUMO tag was still on the chain in the Ni-NTA co-purification step and was removed by ULP1 afterwards; also called DNMT3C methyltransferase domain; WT DNMT3C; source: E. coli BL21 (DE3) RIL, co-expressed with DNMT3L, purified (Ni-NTA, Heparin, SEC); not shown: His6-SUMO, N-terminal, cleaved
For the protein B1, the binding result was “binds”.
